Results taken from doi:10.1101/2020.09.29.317909.

Target: MtMce4A_(39-140) (Mycobacterium tuberculosis)
Test: SEC-MALS

MtMce4A_(39-140) (domain or fragment)
stoichiometry N: 2
